From the supplement of paper PMC9112550, “Optimization of the antimicrobial peptide Bac7 by deep mutational scanning” (BMC Biology, 2022)

test system: Escherichia coli TOP10; assay: shrunken log2 fold change of peptide-encoding DNA abundance (4.5 h post-induction vs induction); higher = less antimicrobial activity (less host growth inhibition); conditions: time post-induction: 4.5 h; library: site-saturation at positions 5, 18, 19, 20
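Also: peptides expressed intracellularly from a pBAD plasmid library in pooled LB shake-flask culture, induced with 0.3% L-arabinose, DNA abundance read by NGS, three biological replicates, DESeq2 with apeglm shrinkage.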

Row | Sequence | shrunken log2 fold change
1 | RRIRMRPPRLPRPRPRPGSIPRP | 0.239
2 | RRIRSRPPRLPRPRPRPQMWPRP | 0.0996
3 | RRIRRRPPRLPRPRPRPERLPRP | 0.474
4 | RRIRYRPPRLPRPRPRPQVSPRP | -0.849
5 | RRIRQRPPRLPRPRPRPMPHPRP | -0.0205
6 | RRIRNRPPRLPRPRPRPGTTPRP | 0.0321
7 | RRIRIRPPRLPRPRPRPNGLPRP | 0.0383
8 | RRIRVRPPRLPRPRPRPTTWPRP | -0.0829
9 | RRIRCRPPRLPRPRPRPCNDPRP | -0.173
10 | RRIRRRPPRLPRPRPRPQSDPRP | 0.244
11 | RRIRPRPPRLPRPRPRPRCTPRP | 0.753
12 | RRIRWRPPRLPRPRPRPNQIPRP | -0.189
13 | RRIRDRPPRLPRPRPRPTLYPRP | 0.26
14 | RRIRFRPPRLPRPRPRPECGPRP | 0.175
15 | RRIRVRPPRLPRPRPRPMLEPRP | 0.0706
16 | RRIRYRPPRLPRPRPRPEPKPRP | 0.0661
17 | RRIRPRPPRLPRPRPRPDYHPRP | -0.815
18 | RRIRFRPPRLPRPRPRPHGMPRP | -0.00197
19 | RRIRRRPPRLPRPRPRPTEYPRP | 0.0398
20 | RRIRGRPPRLPRPRPRPEVWPRP | 1.58
21 | RRIRQRPPRLPRPRPRPQHVPRP | 0.00911
22 | RRIRWRPPRLPRPRPRPWEDPRP | -0.0135
23 | RRIRFRPPRLPRPRPRPNNNPRP | -0.714
24 | RRIRVRPPRLPRPRPRPFEFPRP | -0.284
25 | RRIRCRPPRLPRPRPRPMGDPRP | -0.0113

Row | Sequence | shrunken log2 fold change
26 | RRIRRRPPRLPRPRPRPHCHPRP | -0.134
27 | RRIRWRPPRLPRPRPRPHLIPRP | 0.172
28 | RRIRLRPPRLPRPRPRPSHFPRP | -0.0938
29 | RRIRVRPPRLPRPRPRPFGNPRP | 0.0432
30 | RRIRSRPPRLPRPRPRPVPQPRP | 0.0741
31 | RRIRIRPPRLPRPRPRPERPPRP | 0.285
32 | RRIRNRPPRLPRPRPRPIGQPRP | -0.0958
33 | RRIRKRPPRLPRPRPRPNLQPRP | 0.279
34 | RRIRARPPRLPRPRPRPIGAPRP | 0.716
35 | RRIRVRPPRLPRPRPRPWSTPRP | 0.00921
36 | RRIRSRPPRLPRPRPRPKFIPRP | -0.482
37 | RRIRQRPPRLPRPRPRPMWSPRP | 0.0215
38 | RRIRRRPPRLPRPRPRPQESPRP | -0.131
39 | RRIRSRPPRLPRPRPRPAQQPRP | 0.409
40 | RRIRKRPPRLPRPRPRPETLPRP | 0.0437
41 | RRIRVRPPRLPRPRPRPDSNPRP | -0.159
42 | RRIRSRPPRLPRPRPRPCIFPRP | -0.471
43 | RRIRPRPPRLPRPRPRPKKQPRP | -0.15
44 | RRIRSRPPRLPRPRPRPCHDPRP | -0.105
45 | RRIRVRPPRLPRPRPRPRCSPRP | -0.212
46 | RRIRLRPPRLPRPRPRPFNQPRP | -0.122
47 | RRIRVRPPRLPRPRPRPGAGPRP | 0.284
48 | RRIRERPPRLPRPRPRPRLTPRP | -0.0882
49 | RRIRTRPPRLPRPRPRPETMPRP | 0.338
50 | RRIRHRPPRLPRPRPRPELIPRP | -0.0454

Row | Sequence | shrunken log2 fold change
51 | RRIRGRPPRLPRPRPRPFSQPRP | 0.194
52 | RRIRRRPPRLPRPRPRPSQLPRP | 0.448
53 | RRIRQRPPRLPRPRPRPRCLPRP | 0.176
54 | RRIRWRPPRLPRPRPRPCLTPRP | -0.00541
55 | RRIRERPPRLPRPRPRPKWCPRP | -0.0117
56 | RRIRYRPPRLPRPRPRPWMVPRP | -0.523
57 | RRIRERPPRLPRPRPRPTDPPRP | -0.152
58 | RRIRWRPPRLPRPRPRPCSIPRP | -0.134
59 | RRIRKRPPRLPRPRPRPGHHPRP | 0.228
60 | RRIRMRPPRLPRPRPRPLEKPRP | 1.07
61 | RRIRKRPPRLPRPRPRPHMAPRP | -0.448
62 | RRIRWRPPRLPRPRPRPACKPRP | -0.0942
63 | RRIRLRPPRLPRPRPRPNVFPRP | -0.301
64 | RRIRFRPPRLPRPRPRPRYRPRP | -0.4
65 | RRIRGRPPRLPRPRPRPFYSPRP | -0.00304
66 | RRIRFRPPRLPRPRPRPMKMPRP | -0.0224
67 | RRIRKRPPRLPRPRPRPCIIPRP | -0.108
68 | RRIRWRPPRLPRPRPRPPHFPRP | 0.701
69 | RRIRWRPPRLPRPRPRPVPGPRP | 0.491
70 | RRIRYRPPRLPRPRPRPALSPRP | -0.0367
71 | RRIRIRPPRLPRPRPRPEIRPRP | -0.0172
72 | RRIRHRPPRLPRPRPRPEFQPRP | -0.0862
73 | RRIRERPPRLPRPRPRPFMFPRP | -0.531
74 | RRIRCRPPRLPRPRPRPSEVPRP | -0.328
75 | RRIRVRPPRLPRPRPRPEHYPRP | 0.0358

Row | Sequence | shrunken log2 fold change
76 | RRIRNRPPRLPRPRPRPFCPPRP | -0.278
77 | RRIRIRPPRLPRPRPRPCDTPRP | -0.387
78 | RRIRKRPPRLPRPRPRPIPYPRP | -0.303
79 | RRIRYRPPRLPRPRPRPSVFPRP | -0.219
80 | RRIRCRPPRLPRPRPRPWDLPRP | 0.129
81 | RRIRIRPPRLPRPRPRPRNNPRP | -0.355
82 | RRIRVRPPRLPRPRPRPHDGPRP | 0.0377
83 | RRIRERPPRLPRPRPRPMTGPRP | -0.0422
84 | RRIRRRPPRLPRPRPRPNPIPRP | 0.208
85 | RRIRPRPPRLPRPRPRPTCQPRP | -0.0775
86 | RRIRNRPPRLPRPRPRPANEPRP | -0.00326
87 | RRIRTRPPRLPRPRPRPQTVPRP | -0.216
88 | RRIRNRPPRLPRPRPRPLHEPRP | 0.0748
89 | RRIRARPPRLPRPRPRPHMSPRP | -0.181
90 | RRIRCRPPRLPRPRPRPRVRPRP | 0.197
91 | RRIRRRPPRLPRPRPRPHNFPRP | -0.0578
92 | RRIRRRPPRLPRPRPRPRRAPRP | 0.655
93 | RRIRVRPPRLPRPRPRPWLFPRP | 0.141
94 | RRIRKRPPRLPRPRPRPKHWPRP | 0.162
95 | RRIRLRPPRLPRPRPRPRLWPRP | 0.399
96 | RRIRPRPPRLPRPRPRPMCEPRP | -0.0631
97 | RRIRKRPPRLPRPRPRPARVPRP | 0.857
98 | RRIRGRPPRLPRPRPRPSEYPRP | -0.0981
99 | RRIRWRPPRLPRPRPRPVLLPRP | 0.0146
100 | RRIRQRPPRLPRPRPRPEHHPRP | -0.136

Row | Sequence | shrunken log2 fold change
101 | RRIRSRPPRLPRPRPRPCMMPRP | 0.0683
102 | RRIRARPPRLPRPRPRPVFTPRP | -0.0343
103 | RRIRHRPPRLPRPRPRPGGFPRP | -0.127
104 | RRIRYRPPRLPRPRPRPTVEPRP | 0.0629
105 | RRIRFRPPRLPRPRPRPFTNPRP | -0.125
106 | RRIRMRPPRLPRPRPRPENNPRP | 1.53
107 | RRIRKRPPRLPRPRPRPPIWPRP | 0.106
108 | RRIRVRPPRLPRPRPRPYWWPRP | -0.208
109 | RRIRSRPPRLPRPRPRPLKRPRP | 0.026
110 | RRIRYRPPRLPRPRPRPPSHPRP | -0.383
111 | RRIRRRPPRLPRPRPRPTNKPRP | 0.149
112 | RRIRIRPPRLPRPRPRPEVMPRP | -0.195
113 | RRIRKRPPRLPRPRPRPFKWPRP | 0.33
114 | RRIRMRPPRLPRPRPRPAQEPRP | 0.0616
115 | RRIRGRPPRLPRPRPRPFIQPRP | -0.382
116 | RRIRKRPPRLPRPRPRPIWTPRP | -0.00674
117 | RRIRRRPPRLPRPRPRPNFAPRP | 0.0508
118 | RRIRFRPPRLPRPRPRPMFHPRP | -0.473
119 | RRIRWRPPRLPRPRPRPWRIPRP | -0.604
120 | RRIRARPPRLPRPRPRPILNPRP | -0.273
121 | RRIRTRPPRLPRPRPRPFYTPRP | -0.373
122 | RRIRGRPPRLPRPRPRPPENPRP | 1.11
123 | RRIRQRPPRLPRPRPRPHLPPRP | 0.0272
124 | RRIRQRPPRLPRPRPRPFTNPRP | -0.0235
125 | RRIRARPPRLPRPRPRPLIHPRP | -0.117

Row | Sequence | shrunken log2 fold change
126 | RRIRNRPPRLPRPRPRPKHKPRP | -0.0428
127 | RRIRPRPPRLPRPRPRPAGVPRP | 0.392
128 | RRIRARPPRLPRPRPRPQKKPRP | -0.0278
129 | RRIRNRPPRLPRPRPRPAKIPRP | -0.405
130 | RRIRIRPPRLPRPRPRPEFRPRP | 0.239
131 | RRIRGRPPRLPRPRPRPIFHPRP | 0.249
132 | RRIRPRPPRLPRPRPRPSYYPRP | -0.721
133 | RRIRGRPPRLPRPRPRPLVRPRP | 0.577
134 | RRIRYRPPRLPRPRPRPKDHPRP | -0.487
135 | RRIRCRPPRLPRPRPRPNNTPRP | -0.737
136 | RRIRMRPPRLPRPRPRPNGYPRP | 0.0495
137 | RRIRFRPPRLPRPRPRPCGQPRP | 0.151
138 | RRIRGRPPRLPRPRPRPATEPRP | 0.976
139 | RRIRMRPPRLPRPRPRPFHNPRP | -0.00804
140 | RRIRIRPPRLPRPRPRPWPFPRP | -0.259
141 | RRIRNRPPRLPRPRPRPGQAPRP | 0.0345
142 | RRIRDRPPRLPRPRPRPQALPRP | 0.214
143 | RRIRVRPPRLPRPRPRPSTQPRP | -0.0637
144 | RRIRCRPPRLPRPRPRPECMPRP | 0.119
145 | RRIRNRPPRLPRPRPRPGAMPRP | 0.101
146 | RRIRKRPPRLPRPRPRPHCTPRP | -0.24
147 | RRIRHRPPRLPRPRPRPQQMPRP | 0.00835
148 | RRIRQRPPRLPRPRPRPENDPRP | -0.0134
149 | RRIRFRPPRLPRPRPRPDGEPRP | 0.0232
150 | RRIRNRPPRLPRPRPRPEMTPRP | -0.059
